One assay concerns the target HLA-A*02 (human). Put plainly: UV-ligand exchange, anti-b2m ELISA; grade: exchange yield >=50%. On the technique in general: In an ELISA, binding on a coated surface is turned into a signal by an enzyme label.
Molecule ALDSGAFQSV (modifications not checked) came in with a peptide exchange yield of 50 to 75%.

A further assay concerns the target HLA-A*24 (human). Put plainly: UV-ligand exchange, anti-b2m ELISA; grade: exchange yield >=75%.
On to IYPGAFVDL, for which the peptide exchange yield is above 75%. AYVNTFHNI: the peptide exchange yield was above 75%.

IYTGNISSF came in with a peptide exchange yield above 75%. Same read-out and setting: then IYLERFPIF, with above 75%. Turning to AYPAIRYLL, the peptide exchange yield is above 75%.

For KFVTVQATF, the peptide exchange yield is above 75%.

The molecule RYAPPPSFSEF showed a peptide exchange yield above 75%. The same measure, in the same setting: then DYIPYVFKL, with above 75%; and YYNKVSTVF, with above 75%; and RWPKKSAEF, with above 75%. In turn, IYADVGEEF showed a peptide exchange yield above 75%. Still for that read-out and setting: then LYWSHPRKF, with above 75%. Molecule KYPDIISRI gave a peptide exchange yield above 75%. Consider IYVTSIEQI, for which the peptide exchange yield was above 75%.

Molecule SYPTFFPRF displayed a peptide exchange yield above 75%. Consider VYQGAIRQI, for which the peptide exchange yield is above 75%.

KWPETPLLL gave a peptide exchange yield above 75%. The molecule IYIPSYFDF came in with a peptide exchange yield above 75%. As for AYLLQPSQF, the peptide exchange yield is above 75%.

Regarding RYNEKCFKL, the peptide exchange yield was above 75%. Turning to SYNPAENAVLL, the peptide exchange yield is above 75%.

Molecule SYITKPEKW registered a peptide exchange yield above 75%. Take YYGILQEKI: the peptide exchange yield was above 75%. Take AYGTYRSNF: the peptide exchange yield is above 75%. In turn, VYGDVISNI had a peptide exchange yield above 75%.

Molecule RYSAGWDAKF displayed a peptide exchange yield above 75%. Consider VYGLQRNLL, for which the peptide exchange yield is above 75%.

With AYLKWISQI, the peptide exchange yield is above 75%.

The target of the next assay is HLA-A*24 (human). Put plainly: UV-ligand exchange, anti-b2m ELISA; grade: exchange yield >=50%.
As to AFSPDSHYLLF, the peptide exchange yield was 50 to 75%.

On to VFHPRQELI, for which the peptide exchange yield lay within 50 to 75%.

The values above are taken from US20160250307A1.
